Assay results published in patent publication US20250074980A1 (BRIGHAM AND WOMEN S HOSPITAL, published 2025).
Like-named read-outs stand apart in the source and are kept apart here.

T1: His-tagged CEACAM1 (human, UniProt P13688 35-428)
T1 construct: 45 kDa SPR analyte; also called CEACAM1-HIS; CEACAM1 analyte
T1 sequence: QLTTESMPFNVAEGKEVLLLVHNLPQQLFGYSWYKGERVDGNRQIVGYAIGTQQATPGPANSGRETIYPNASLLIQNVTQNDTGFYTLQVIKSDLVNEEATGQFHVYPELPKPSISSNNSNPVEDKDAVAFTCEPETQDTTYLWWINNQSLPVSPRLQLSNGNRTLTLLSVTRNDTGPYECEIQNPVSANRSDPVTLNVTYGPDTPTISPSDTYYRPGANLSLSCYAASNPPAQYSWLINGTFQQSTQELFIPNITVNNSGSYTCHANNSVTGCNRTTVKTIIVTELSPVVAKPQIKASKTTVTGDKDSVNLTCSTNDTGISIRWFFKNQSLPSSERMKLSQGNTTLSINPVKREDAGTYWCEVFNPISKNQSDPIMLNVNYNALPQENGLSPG


What was measured:
Experiment in all cases: SPR single-cycle, supernatant IgG captured
His-tagged CEACAM1 [1] = biological target: T1, His-tagged CEACAM1
Procedure: (§1) In order to assess the binding of the humanized, affinity matured reformatted lead IgGs, single-cycle kinetics analysis was performed on crude supernatants using a Biacore T200 running Biacore T200 Control Software V2.0.1 and Biacore T200 Evaluation Software V3.0. Antibodies were diluted in HBS-P+ to a final concentration of 0.5 μg/ml. At the start of each cycle, antibodies were loaded onto Fc2, Fc3 and Fc4 of the Protein A chip. IgGs were captured at a flow rate of 10 μl/min to give an immobilisation level (RL) of ˜100 RU (a level calculated to obtain a Rₘₐₓ of ˜50-150 RU once the analyte is bound). The surface was then allowed to stabilize. Single-cycle kinetics data was obtained with CEACAM1 as the analyte at a flow rate of 80 μl/min to minimize any potential mass transfer effects. Multiple repeats with the parent (VH1/Vκ8 S29A) antibody were performed to check the stability of the surface and analyte over the kinetic cycles. The signal from the reference channel Fc1 (no antibody) was subtracted from that of Fc2, Fc3 and Fc4 to correct for differences in non-specific binding to the reference surface. A three point, two-fold dilution range from 70 nM to 280 nM CEACAM1 without regeneration between each concentration was used. The signal from each antibody blank run (no CEACAM1) was subtracted to correct for differences in surface stability. The association phase for the three injections of increasing concentrations of CEACAM1 was monitored for 80 seconds each time and a single dissociation phase was measured for 150 seconds following the last injection of CEACAM1. Regeneration of the Protein A surface was conducted using two injections of 10 mM glycine-HCL pH 1.5 followed by a stabilization period of 250 seconds.

His-tagged CEACAM1 [2] = biological target: T1, His-tagged CEACAM1; remark: listed apart in the source
In short: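 His-tagged CEACAM1 served as analyte over Protein A-captured IgG in single-cycle surface plasmon resonance on a Biacore T200, performed at 25° C in HBS-P+ (pH 7.4). The IgG was taken from supernatants of transiently PEI-transfected HEK EBNA cells grown in 6-well plates and harvested 5-7 days later. Relative KD, alongside fitted Kon, koff and Kd, was referenced to the parent antibody run in the same experiment.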

His-tagged CEACAM1 [3] = biological target: T1, His-tagged CEACAM1; remark: listed apart in the source
Procedure: as §1

| Kd (His-tagged CEACAM1 [1]) | koff (His-tagged CEACAM1 [1]) | kon (His-tagged CEACAM1 [1]) | relative KD to parent (His-tagged CEACAM1 [1]) | Kd (His-tagged CEACAM1 [2]) | koff (His-tagged CEACAM1 [2]) | kon (His-tagged CEACAM1 [2]) | relative KD to parent (His-tagged CEACAM1 [2]) | Kd (His-tagged CEACAM1 [3]) | koff (His-tagged CEACAM1 [3]) | kon (His-tagged CEACAM1 [3]) | relative KD to parent (His-tagged CEACAM1 [3]) | Binder |
| --- | --- | --- | --- | --- | --- | --- | --- | --- | --- | --- | --- | --- |
|  |  |  |  | 280 nM | 0.029 s⁻¹ | 100000 M⁻¹ s⁻¹ | 2 | 280 nM | 0.11 s⁻¹ | 400000 M⁻¹ s⁻¹ | 2.2 | VH1/CP08F05 (antibody, IgG4, V domains shown, IgG4 (S241P), kappa; also called Parent VH/CP08F05) VH: EVQLLESGGGLVQPGGSLRLSCAASGFIFSSHGMSWVRQAPGKGLEWVATISSGGTYTYYPDSVKGRFTISRDNSKNTLYLQMNSLKAEDTAMYYCARHDFDYDAAWFAYWGQGTLVTVSS VL: EIVLTQSPATLSLSPGERATLSCRANSAVSYMYWYQQKPGQAPRPWIYLTSNRATGVPARFSGSGSGTDYTLTISSLEPEDFAVYYCQQWTSNPPTFGQGTKLEIK |
|  |  |  |  | 450 nM | 0.057 s⁻¹ | 130000 M⁻¹ s⁻¹ | 1.2 | 100 nM | 0.043 s⁻¹ | 430000 M⁻¹ s⁻¹ | 6.2 | VH1/CP08D02 (antibody, IgG4, V domains shown, IgG4 (S241P), kappa; also called Parent VH/CP08D02) VH: EVQLLESGGGLVQPGGSLRLSCAASGFIFSSHGMSWVRQAPGKGLEWVATISSGGTYTYYPDSVKGRFTISRDNSKNTLYLQMNSLKAEDTAMYYCARHDFDYDAAWFAYWGQGTLVTVSS VL: EIVLTQSPATLSLSPGERATLSCRANSAVSYMYWYQQKPGQAPRPWIYLTSNRATGVPARFSGSGSGTDYTLTISSLEPEDFAVYYCQQWTSFPPTFGQGTKLEIK |
|  |  |  |  | 450 nM | 0.053 s⁻¹ | 120000 M⁻¹ s⁻¹ | 1.2 | 170 nM | 0.054 s⁻¹ | 330000 M⁻¹ s⁻¹ | 3.7 | VH1/CP08E01 (antibody, IgG4, V domains shown, IgG4 (S241P), kappa; also called Parent VH/CP08E01) VH: EVQLLESGGGLVQPGGSLRLSCAASGFIFSSHGMSWVRQAPGKGLEWVATISSGGTYTYYPDSVKGRFTISRDNSKNTLYLQMNSLKAEDTAMYYCARHDFDYDAAWFAYWGQGTLVTVSS VL: EIVLTQSPATLSLSPGERATLSCRANSAVSYMYWYQQKPGQAPRPWIYLTSNRATGVPARFSGSGSGTDYTLTISSLEPEDFAVYYCQQWTTFPPTFGQGTKLEIK |
|  |  |  |  | 230 nM | 0.034 s⁻¹ | 150000 M⁻¹ s⁻¹ | 2.4 | 140 nM | 0.034 s⁻¹ | 240000 M⁻¹ s⁻¹ | 4.4 | VH1/CP08E05 (antibody, IgG4, V domains shown, IgG4 (S241P), kappa; also called Parent VH/CP08E05) VH: EVQLLESGGGLVQPGGSLRLSCAASGFIFSSHGMSWVRQAPGKGLEWVATISSGGTYTYYPDSVKGRFTISRDNSKNTLYLQMNSLKAEDTAMYYCARHDFDYDAAWFAYWGQGTLVTVSS VL: EIVLTQSPATLSLSPGERATLSCRANSAVSYMYWYQQKPGQAPRPWIYLTSNRATGVPARFSGSGSGTDYTLTISSLEPEDFAVYYCQQWTTNPPTFGQGTKLEIK |
|  |  |  |  | 480 nM | 0.057 s⁻¹ | 120000 M⁻¹ s⁻¹ | 1.2 | 110 nM | 0.049 s⁻¹ | 470000 M⁻¹ s⁻¹ | 5.9 | VH1/CP08G09 (antibody, IgG4, V domains shown, IgG4 (S241P), kappa; also called Parent VH/CP08G09) VH: EVQLLESGGGLVQPGGSLRLSCAASGFIFSSHGMSWVRQAPGKGLEWVATISSGGTYTYYPDSVKGRFTISRDNSKNTLYLQMNSLKAEDTAMYYCARHDFDYDAAWFAYWGQGTLVTVSS VL: EIVLTQSPATLSLSPGERATLSCRANSAVSYMYWYQQKPGQAPRPWIYLTSNRATGVPARFSGSGSGTDYTLTISSLEPEDFAVYYCQQWTAFPPTFGQGTKLEIK |

Further lines, the binder ahead of its results:

| Binder | Kd (His-tagged CEACAM1 [1]) | koff (His-tagged CEACAM1 [1]) | kon (His-tagged CEACAM1 [1]) | relative KD to parent (His-tagged CEACAM1 [1]) | Kd (His-tagged CEACAM1 [2]) | koff (His-tagged CEACAM1 [2]) | kon (His-tagged CEACAM1 [2]) | relative KD to parent (His-tagged CEACAM1 [2]) | Kd (His-tagged CEACAM1 [3]) | koff (His-tagged CEACAM1 [3]) | kon (His-tagged CEACAM1 [3]) | relative KD to parent (His-tagged CEACAM1 [3]) |
| --- | --- | --- | --- | --- | --- | --- | --- | --- | --- | --- | --- | --- |
| 8H3_9C2 (CDR1)/CP08E05 (antibody, IgG4, V domains shown, IgG4 (S241P), kappa) VH: EVQLLESGGGLVQPGGSLRLSCAASEFTFSDHAMSWVRQAPGKGLEWVATISSGGTYTYYPDSVKGRFTISRDNSKNTLYLQMNSLKAEDTAMYYCARHDFDYFPYWFAHWGQGTLVTVSS VL: EIVLTQSPATLSLSPGERATLSCRANSAVSYMYWYQQKPGQAPRPWIYLTSNRATGVPARFSGSGSGTDYTLTISSLEPEDFAVYYCQQWTTNPPTFGQGTKLEIK | 250 nM | 0.019 s⁻¹ | 73000 M⁻¹ s⁻¹ | 2.2 |  |  |  |  |  |  |  |  |
| 8H3_9C2/Vκ8 S29A (antibody, IgG4, V domains shown, IgG4 (S241P), kappa) VH: EVQLLESGGGLVQPGGSLRLSCAASEFTFSDHAMSWVRQAPGKGLEWVATISSGGTYTYYPDSVKGRFTISRDNSKNTLYLQMNSLKAEDTAMYYCARHGFDYFPYWFAHWGQGTLVTVSS VL: EIVLTQSPATLSLSPGERATLSCRANSAVSYMYWYQQKPGQAPRPWIYLTSNRATGVPARFSGSGSGTDYTLTISSLEPEDFAVYYCQQWSSNPPTFGQGTKLEIK | 110 nM | 0.0071 s⁻¹ | 65000 M⁻¹ s⁻¹ | 5.1 |  |  |  |  |  |  |  |  |
| 8H3_9C2 (CDR1)/CP08F05 (antibody, IgG4, V domains shown, IgG4 (S241P), kappa) VH: EVQLLESGGGLVQPGGSLRLSCAASEFTFSDHAMSWVRQAPGKGLEWVATISSGGTYTYYPDSVKGRFTISRDNSKNTLYLQMNSLKAEDTAMYYCARHDFDYFPYWFAHWGQGTLVTVSS VL: EIVLTQSPATLSLSPGERATLSCRANSAVSYMYWYQQKPGQAPRPWIYLTSNRATGVPARFSGSGSGTDYTLTISSLEPEDFAVYYCQQWTSNPPTFGQGTKLEIK | 240 nM | 0.017 s⁻¹ | 72000 M⁻¹ s⁻¹ | 2.3 |  |  |  |  |  |  |  |  |
| 8H3_9E5/Vκ8 S29A (antibody, IgG4, V domains shown, IgG4 (S241P), kappa) VH: EVQLLESGGGLVQPGGSLRLSCAASGFIFSSHGMSWVRQAPGKGLEWVATISSGGTYTYYPDSVKGRFTISRDNSKNTLYLQMNSLKAEDTAMYYCARHGFDYFPYWFAHWGQGTLVTVSS VL: EIVLTQSPATLSLSPGERATLSCRANSAVSYMYWYQQKPGQAPRPWIYLTSNRATGVPARFSGSGSGTDYTLTISSLEPEDFAVYYCQQWSSNPPTFGQGTKLEIK | 300 nM | 0.024 s⁻¹ | 81000 M⁻¹ s⁻¹ | 1.9 |  |  |  |  |  |  |  |  |
| 8H3_9C2 (CDR1)/Vκ8 S29A (antibody, IgG4, V domains shown, IgG4 (S241P), kappa) VH: EVQLLESGGGLVQPGGSLRLSCAASEFTFSDHAMSWVRQAPGKGLEWVATISSGGTYTYYPDSVKGRFTISRDNSKNTLYLQMNSLKAEDTAMYYCARHDFDYFPYWFAHWGQGTLVTVSS VL: EIVLTQSPATLSLSPGERATLSCRANSAVSYMYWYQQKPGQAPRPWIYLTSNRATGVPARFSGSGSGTDYTLTISSLEPEDFAVYYCQQWSSNPPTFGQGTKLEIK | 210 nM | 0.018 s⁻¹ | 88000 M⁻¹ s⁻¹ | 2.7 |  |  |  |  |  |  |  |  |
| 8H3_9E5/CP08E05 (antibody, IgG4, V domains shown, IgG4 (S241P), kappa) VH: EVQLLESGGGLVQPGGSLRLSCAASGFIFSSHGMSWVRQAPGKGLEWVATISSGGTYTYYPDSVKGRFTISRDNSKNTLYLQMNSLKAEDTAMYYCARHGFDYFPYWFAHWGQGTLVTVSS VL: EIVLTQSPATLSLSPGERATLSCRANSAVSYMYWYQQKPGQAPRPWIYLTSNRATGVPARFSGSGSGTDYTLTISSLEPEDFAVYYCQQWTTNPPTFGQGTKLEIK | 320 nM | 0.025 s⁻¹ | 79000 M⁻¹ s⁻¹ | 1.8 |  |  |  |  |  |  |  |  |
| 8H3_9C2/CP08E05 (antibody, IgG4, V domains shown, IgG4 (S241P), kappa) VH: EVQLLESGGGLVQPGGSLRLSCAASEFTFSDHAMSWVRQAPGKGLEWVATISSGGTYTYYPDSVKGRFTISRDNSKNTLYLQMNSLKAEDTAMYYCARHGFDYFPYWFAHWGQGTLVTVSS VL: EIVLTQSPATLSLSPGERATLSCRANSAVSYMYWYQQKPGQAPRPWIYLTSNRATGVPARFSGSGSGTDYTLTISSLEPEDFAVYYCQQWTTNPPTFGQGTKLEIK | 110 nM | 0.0071 s⁻¹ | 67000 M⁻¹ s⁻¹ | 5.3 |  |  |  |  |  |  |  |  |
| 8H3_9E5/CP08F05 (antibody, IgG4, V domains shown, IgG4 (S241P), kappa) VH: EVQLLESGGGLVQPGGSLRLSCAASGFIFSSHGMSWVRQAPGKGLEWVATISSGGTYTYYPDSVKGRFTISRDNSKNTLYLQMNSLKAEDTAMYYCARHGFDYFPYWFAHWGQGTLVTVSS VL: EIVLTQSPATLSLSPGERATLSCRANSAVSYMYWYQQKPGQAPRPWIYLTSNRATGVPARFSGSGSGTDYTLTISSLEPEDFAVYYCQQWTSNPPTFGQGTKLEIK | 280 nM | 0.028 s⁻¹ | 77000 M⁻¹ s⁻¹ | 2 |  |  |  |  |  |  |  |  |
